The values below come from the supplement of paper PMC10567573.

± gives the standard deviation.

The series is described as follows: protein stability index of a GFP-peptide fusion (GPS, HEK-293T) (PSI 1-6); higher = more stable. The conditions noted are these: c terminus: a fixed tail appended.
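Note: 24-mer peptide tiles fused after GFP, lentivirally expressed, FACS-sorted into six equal bins by GFP/DsRed ratio, decoded by Illumina sequencing, PSI is the read-weighted mean bin number.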

Take DTTELSSAERYNPRTNQWSPVVAM [KLHL20]: the protein stability index by setting is: (treatment: DMSO) 3.5 ± 0.17; (treatment: MLN4924 1 uM, 8 h) 3.7 ± 0.19.
For HHAQTSKTERINALELLGATFVDK [FEM1C] the same measures were 3.83 ± 0.12 and 3.86 ± 0.31.
On the same counts, the results for PEPQVPGPAHGPAQEEPWEKKESL [ZNF232] are 5.55 ± 0.29 and 5.62 ± 0.2.
On the same counts, the results for SFFYPVLFVLFMFFGMAFNFIVND [SOAT1] are 2 ± 0.2 and 1.96 ± 0.32.
For the sequence VRLHDSISEEGHHYLIFDLVTGGE [CAMK2A], the protein stability index came to 2.23 ± 0.4 (treatment: DMSO) and 2.26 ± 0.18 (treatment: MLN4924 1 uM, 8 h).
On to YQRWIYRVDPTRVNEFGMSGEDPT [CLPTM1], for which the protein stability index is 2.6 ± 0.34 (treatment: DMSO) and 2.72 ± 0.3 (treatment: MLN4924 1 uM, 8 h).
Turning to YLNYYQGMLDVADESLTDLEAQPY [P3H4], the protein stability index runs as follows: (treatment: DMSO) 2.8 ± 0.15; (treatment: MLN4924 1 uM, 8 h) 2.81 ± 0.14.
On the same counts, the results for TASYPSDGCGADGLRSRVKYGVKT [NOL4L] are 3.84 ± 0.24 and 3.98 ± 0.32.
As for NEYRKLHPVLHKEEKQHLERLNKE [TRIM43], the protein stability index (treatment: DMSO) turned out to be 4.9 ± 0.21 and the protein stability index (treatment: MLN4924 1 uM, 8 h) was 4.87 ± 0.081.
On the same counts, the results for FVSRYKLMRHMATHSPQKSHQCAH [PLAGL1] are 2.7 ± 0.37 and 2.55 ± 0.38.
For LDLSKPNDLWPTMENLLQATKSHV [DYNC2LI1] the same measures were 3.06 ± 0.28 and 3 ± 0.19.
For ELCVKLMFLHPVDYGRKAEELLWR [SMG5] the same measures were 2.41 ± 0.7 and 2.33 ± 0.89.
Take PVNALVSHLLVVEPEKLYAMPDPA [ESRRA]: the protein stability index by setting is: (treatment: DMSO) 2.88 ± 0.24; (treatment: MLN4924 1 uM, 8 h) 2.92 ± 0.27.
For HQTLKCSALATQYMHCVNHAKQSM [CHCHD3] the same measures were 2.1 ± 0.22 and 2.29 ± 0.17.
For the sequence GEENFEVVKQFVTGIIDSLTISPK [MATN2], the protein stability index is, setting by setting: (treatment: DMSO) 3.18 ± 0.2; (treatment: MLN4924 1 uM, 8 h) 3.32 ± 0.46.
For LTVNTEAQQLLREFEEATGEAGWG [FOXJ1] the same measures were 4.55 ± 0.14 and 4.62 ± 0.073.
On to KASSRKPFGILSPNVLCSMSGKSP [FBXO34], for which the protein stability index amounted to 2.83 ± 0.095 (treatment: DMSO) and 3 ± 0.27 (treatment: MLN4924 1 uM, 8 h).
For SSGAGSSPPAAPCPPPPGPAAAPE [ZBED3] the same measures were 5.36 ± 0.24 and 5.35 ± 0.085.
For ESSPSHDRSRTVSASSTGDLPKAK [SRPK2] the same measures were 5.16 ± 0.33 and 5.22 ± 0.16.
Turning to AGMGKVTSASFGEESTPGQTNSET [HDAC6], the protein stability index worked out at 5.3 ± 0.29 (treatment: DMSO) and 5.25 ± 0.1 (treatment: MLN4924 1 uM, 8 h).
For ARLMRSNYPPPLSSAALRGAGPTR [C6orf223] the same measures were 3.79 ± 0.2 and 3.96 ± 0.14.
For DSGTCPEVDEEGFTVRPDVTQNST [FCHO1] the same measures were 5.43 ± 0.28 and 5.4 ± 0.15.
On the same counts, the results for QFEPQLTLWDVFGANKEVQELLER [RSAD1] are 3.24 ± 0.26 and 3.8 ± 0.47.
The sequence LPQEDPSTSQGCAQPQGAPCCSSS [FEM1A] had a protein stability index (treatment: DMSO) of 5.48 ± 0.12 and a protein stability index (treatment: MLN4924 1 uM, 8 h) of 5.37 ± 0.19.
For PGIDIREDLAQKLNLEEDRIQIWF [HESX1] the same measures were 2.55 ± 0.56 and 2.43 ± 0.41.
On the same counts, the results for CCSRYLCMGAMSLFLPCLLCYPPA [SPRY1] are 2.82 ± 0.47 and 2.58 ± 0.63.
For QYKKEPVTTRQVRTIVEEVQDGKV [KRT17] the same measures were 5 ± 0.22 and 5.12 ± 0.29.
For VAPLADGKVAVGQDDLTVVLNEEG [VPS39], the protein stability index stood at 5.46 ± 0.18 (treatment: DMSO) and 5.59 ± 0.17 (treatment: MLN4924 1 uM, 8 h).
On the same counts, the results for EGSPRNLGTPTSSTPRPSITPTKK [C2CD2L] are 5.35 ± 0.19 and 5.34 ± 0.17.
For KVLEEGGFFEEKGAIFCPPCYDVR [PDLIM7] the same measures were 2.96 ± 0.29 and 2.92 ± 0.36.
On the same counts, the results for SWAKSIPGFSSLSLSDQMSVLQSV [ESRRA] are 2.5 ± 0.32 and 2.66 ± 0.17.
Turning to IMELTGGGQESSGLNLGKKISVPR [MYOZ1], the protein stability index by setting is: (treatment: DMSO) 3.58 ± 0.19; (treatment: MLN4924 1 uM, 8 h) 3.83 ± 0.33.
Turning to SLKKGSLVKNLKDTLGLGKTRRKT [NCK2], the protein stability index came out at 3.96 ± 0.18 (treatment: DMSO) and 3.81 ± 0.31 (treatment: MLN4924 1 uM, 8 h).
Take YRERRDSDTYRCEERSPSFGEDYY [CLK3]: the protein stability index came out at 4.37 ± 0.2 (treatment: DMSO) and 4.29 ± 0.21 (treatment: MLN4924 1 uM, 8 h).
For TNNPRFDKMEGNPICVQIPWDKNP [CRY1] the same measures were 3.47 ± 0.3 and 3.69 ± 0.25.
For the sequence CLSRHSINPYSNRESRILFSTWNL [DFFB], the protein stability index runs as follows: (treatment: DMSO) 2.28 ± 0.27; (treatment: MLN4924 1 uM, 8 h) 2.15 ± 0.3.
